Paper PMC11805909, “Structural basis of inhibition of human NaV1.8 by the tarantula venom peptide Protoxin-I” (Nature Communications, 2025)

Target: T1, human NaV1.8 α-subunit (human, UniProt Q9Y5Y9 1-1956, M1713V, N-linked glycosylation modelled at Asn 312, 819, 1312, 1328 and 1336; further sites N284 and N288)
T1 construct: a TEV protease site stands between the N-terminal tags and the channel; No TEV cleavage is described in the purification, so the N-terminal tags were probably still on the protein on the grids; VSDI was not resolved in the maps; also called hNaV1.8; apo-hNaV1.8; source: HEK293 (FreeStyle 293-F), transiently co-transfected with β4; not shown: FLAG, N-terminal, kept
Assay: cryo-EM structure; 45 µM ProTx-I incubated 30 min on ice with purified hNaV1.8 in GDN micelles (150 mM NaCl, 25 mM HEPES pH 7.5, 0.006% GDN); excess peptide removed on a 100 kDa MWCO filter; monolayer graphene grids
Conditions: both partners purified

B1: Protoxin-I (peptide)
peptide: ECRYWLGGCSAGQTCCKHLVCSRRHGWCVWDGTFS
notes: modelled from the NMR ensemble PDB 2M9L; printed residue numbers (R3, W5, L6, S22, R23, W27, V29, W30, D31, G32, F34) count on the peptide; Disulfide-rich (ICK framework); also called ProTx-I; source: bought: Smartox Biotechnology
binding result: binds
